The assay has as its target T1, human PDGFRβ isoform 1, myc-tagged, expressed on Expi293F cells (human, UniProt P09619 33-1106).
T1 construct: not shown: N-terminal myc-tag and linker
Description: flow cytometry, gH/gL/gO-sfGFP medium on Expi293F cells expressing PDGFRβ (negative control). In general terms: Flow cytometry measures light scatter and fluorescence of single cells or particles in a stream.

T1 sequence (P09619 33-1106): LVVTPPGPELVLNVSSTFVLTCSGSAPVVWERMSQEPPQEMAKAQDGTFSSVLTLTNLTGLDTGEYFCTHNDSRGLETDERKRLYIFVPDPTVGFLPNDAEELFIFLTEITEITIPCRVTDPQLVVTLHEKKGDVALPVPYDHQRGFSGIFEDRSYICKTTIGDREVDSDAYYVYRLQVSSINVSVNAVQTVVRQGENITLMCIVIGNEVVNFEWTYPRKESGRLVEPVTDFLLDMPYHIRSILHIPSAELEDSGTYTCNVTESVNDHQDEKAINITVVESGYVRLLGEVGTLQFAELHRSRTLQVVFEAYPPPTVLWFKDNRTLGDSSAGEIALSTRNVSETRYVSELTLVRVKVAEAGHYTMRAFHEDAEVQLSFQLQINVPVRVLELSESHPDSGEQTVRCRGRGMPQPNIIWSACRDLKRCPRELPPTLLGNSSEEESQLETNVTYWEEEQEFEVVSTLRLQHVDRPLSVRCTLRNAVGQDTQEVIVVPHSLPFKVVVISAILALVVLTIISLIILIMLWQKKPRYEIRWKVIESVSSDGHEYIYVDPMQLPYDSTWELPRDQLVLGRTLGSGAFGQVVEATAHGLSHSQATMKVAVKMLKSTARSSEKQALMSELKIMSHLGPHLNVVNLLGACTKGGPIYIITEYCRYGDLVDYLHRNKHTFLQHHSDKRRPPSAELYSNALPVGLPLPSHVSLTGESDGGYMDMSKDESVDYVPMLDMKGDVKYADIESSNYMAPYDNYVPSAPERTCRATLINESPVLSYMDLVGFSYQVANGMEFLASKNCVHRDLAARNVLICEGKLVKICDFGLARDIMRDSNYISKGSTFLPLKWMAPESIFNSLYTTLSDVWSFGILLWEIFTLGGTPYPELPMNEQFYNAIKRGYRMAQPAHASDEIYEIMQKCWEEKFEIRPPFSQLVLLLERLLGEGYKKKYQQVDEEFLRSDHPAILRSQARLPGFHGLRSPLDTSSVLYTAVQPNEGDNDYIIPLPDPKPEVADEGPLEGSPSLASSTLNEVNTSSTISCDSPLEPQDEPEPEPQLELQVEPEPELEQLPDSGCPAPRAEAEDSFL

B1: soluble HCMV glycoprotein trimer gH/gL/gO-sfGFP from strain TB40/E (other)
chain 1: […]
chain 2: VAVSVAPTAAEKVPAECPELTRRCLLGEVFQGDKYESWLRPLVNVTGRNGPLSQLIRYRPVTPEAANSVLLDDAFLDTLALLYNNPDQLRALLTLLSSDTAPRWMTVMRGYSECGDGSPAVYTCVDDLCRGYDLTRLSYGRSIFTEHVLGFELVPPSLFNVVVAIRNEATRTNRAVRLPVSTAAAPEGITLFYGLYNAVKEFCLRHQLDPPLLRHLDKYYAGLPPELKQTRVNLPAHSRYGPQAVDAR
chain 3: […]
notes: also called TB40/E trimer; CMV trimer; not shown: C-terminal FLAG tag; C-terminal superfolder GFP (Pedelacq et al. 2006)
As for B1, the binding result is “no binding”.

(Values after patent publication US20220380436A1 (BOARD OF TRUSTEES OF THE UNIVERSITY OF ILLINOIS, published 2022).)
